Experimental data as given in the supplement of paper PMC10567573.

B1: MLL5 (parent)
chain: DCMGIDRQHIPDTYLCERCQPRNL

Variants of: B1
Assay: protein stability index of a GFP-peptide fusion (GPS, HEK-293T) (PSI 1-6); higher = more stable
Conditions: c terminus: a fixed tail appended
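Further: lentivirally expressed fusions sorted by FACS into six bins by GFP to DsRed ratio, PSI derived from sequencing read proportions per bin multiplied by bin number.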

Protein stability index, by site and new letter:
P11: N 4.19; L 2.23; H 3.71; M 2.82; G 2.96; R 3.15; E 3.43; D 2.61; W 1.7; Y 2.44; V 2.73; A 2.6; F 2.59; I 2.36; S 2.23; K 2.62; T 3.08; C 4.15; Q 2.69
Y14: A 3.85; M 3.5; Q 3.7; G 3.35; N 3.15; E 4.21; W 3.26; H 4.12; F 2.89; S 3.32; I 3.21; T 3.73; D 3.83; L 2.56; V 3.43; P 3.71; C 4.74; K 3.11; R 3.88
L15: P 3.15; I 3.61; E 4.66; N 3.8; S 3.76; M 2.95; G 3.43; R 3.61; C 3.71; T 3.73; D 3.69; W 2.81; H 3.32; K 4; A 3.61; F 2; Q 2.99; Y 2.28; V 3.28
E17: V 1.71; R 2.47; D 3.21; W 2.02; K 2.6; N 3.35; M 2.28; F 2.25; H 2.68; P 2.96; Q 3.04; S 2.64; I 1.94; G 2.39; A 2.89; C 2.32; Y 2.5; T 3.07; L 2.96
G4: D 3.11; P 2.55; F 2.37; E 3.23; H 3.98; T 3.23; S 3.45; L 2.63; C 3.73; Y 2.49; R 2.48; N 2.19; V 2.38; K 3.19; W 1.78; M 2.88; A 2.23; Q 2.88; I 2.41
Q8: F 1.98; Y 2.65; A 2.54; E 2.63; V 2.1; R 2.5; G 2.59; N 3.07; M 2.58; T 2.33; H 2.89; I 2.56; D 2.27; K 2.44; S 3.25; L 1.99; P 3.41; C 2.73; W 1.76
D6: I 1.56; F 1.74; L 2.31; K 2.59; N 2.4; V 2.4; H 3.19; M 1.88; T 2.02; Q 3.21; S 2.99; G 2.78; C 3.29; Y 2.47; E 2.78; A 3.27; W 1.62; R 2.74; P 2.61
T13: S 3.66; H 3.36; I 2.26; F 2.55; K 3.24; G 3.31; Y 2.15; N 2.91; Q 3.07; D 3.54; W 2.7; A 3.59; R 3.63; C 2.17; P 3.33; E 3.71; L 2.04; V 3.34; M 2.89
D1: L 2.21; V 2.86; Y 1.95; W 1.4; P 3.3; R 2.42; S 3.17; M 1.91; A 2.69; H 2.73; C 3.63; I 2.17; N 2.21; F 1.89; T 2.43; Q 2.41; E 2.63; K 2.58
R18: I 2.9; P 3.15; C 2.89; A 2.57; M 2.74; F 2.87; N 3.58; G 3.6; D 3.81; Q 3.01; K 2.63; E 3.15; H 3.18; L 2.84
I10: E 3.72; S 3.14; N 3.3; Q 3.42; K 3.04; P 2.97; H 3.49; W 2.37; Y 3.49; L 3.02; A 2.92; R 3; T 2.48; C 3.62; G 3.13; F 2.54; V 2.45; M 3.9; D 3.56
D12: C 2.67; G 2.63; P 3.19; Y 2.1; I 2.51; S 2.38; L 1.93; E 2.81; M 3.1; V 1.69; R 2.86; Q 2.67; F 2.64; N 2.38; A 2.01; K 1.96; H 2.48; T 2.81
C16: K 3.41; N 3.7; G 4.23; V 3.21; I 3.44; Y 2.88; M 3.7; A 3.56; P 3.73; W 2.9; E 3.65; R 3.67; Q 3.79; D 3.91; F 3.13; T 3.41; L 3.36; H 3.58; S 3.52
C2: G 2.7; E 3.79; V 2.77; Q 3.48; T 3.21; A 3.09; S 2.63; D 3.08; M 2.89; W 2.21; H 3.36; P 4.03; R 3.38; Y 2.53; N 3.41; I 2.57; L 2.73; K 2.99; F 2.1
M3: V 2.9; Q 2.48; S 3.66; P 3.32; K 3.63; T 2.47; L 2.89; I 2.77; R 2.61; C 3.14; W 3.54; F 2.57; N 2.88; H 2.81; D 3.75; E 4.56; A 2.48; G 2.94; Y 3.03
R7: S 3.44; T 3.02; I 2.24; Q 3.06; A 2.63; W 2.4; N 2.9; C 4.09; Y 2.2; P 2.94; K 2.29; F 2.78; D 3.62; L 2.68; G 3.69; E 3.58; M 2.55; V 2.39; H 3.73
I5: Q 3.37; M 3.1; D 2.87; W 2.88; A 3.7; G 3.5; Y 2.61; E 3.57; N 3.67; C 3.73; T 3.69; K 3.48; P 3.27; F 2.85; V 3.16; S 2.54; H 3.99; R 3.37
H9: N 2.65; M 2.16; I 2.24; A 2.63; D 2.56; E 2.86; F 2.04; G 2.77; T 3.11; R 2.64; V 2.63; Y 2.01; W 2.23; K 3.58; Q 3.04; C 3.29; L 2.93; S 2.98; P 2.12
